Literature values, collected in PMC7140434.

Biological target: emerin (Homo sapiens) (UniProt P50402)
Sequence of UniProt P50402 (P50402 whole entry): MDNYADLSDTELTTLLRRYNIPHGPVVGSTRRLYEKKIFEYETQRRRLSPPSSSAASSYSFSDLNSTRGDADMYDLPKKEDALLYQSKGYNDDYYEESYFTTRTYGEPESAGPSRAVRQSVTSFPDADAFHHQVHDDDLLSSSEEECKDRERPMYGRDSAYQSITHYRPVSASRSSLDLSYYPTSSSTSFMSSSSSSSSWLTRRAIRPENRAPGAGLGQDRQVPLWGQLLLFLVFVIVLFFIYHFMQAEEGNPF

- Kd: 7.3 µM
Substance: HDAC3 (from UniProt O15379)
